{"source": "paper doi:10.1101/2021.08.22.457263", "about": "“Reconstitution of surface lipoprotein translocation reveals Slam as an outer membrane translocon in Gram-negative bacteria” (bioRxiv, 2021)", "target": "T1, M. catarrhalis transferrin binding protein B with C-terminal flag-tag (Mcat TbpB-flag) (Moraxella catarrhalis, UniProt P0DTW7 21-706, lipidated)", "T1 sequence": "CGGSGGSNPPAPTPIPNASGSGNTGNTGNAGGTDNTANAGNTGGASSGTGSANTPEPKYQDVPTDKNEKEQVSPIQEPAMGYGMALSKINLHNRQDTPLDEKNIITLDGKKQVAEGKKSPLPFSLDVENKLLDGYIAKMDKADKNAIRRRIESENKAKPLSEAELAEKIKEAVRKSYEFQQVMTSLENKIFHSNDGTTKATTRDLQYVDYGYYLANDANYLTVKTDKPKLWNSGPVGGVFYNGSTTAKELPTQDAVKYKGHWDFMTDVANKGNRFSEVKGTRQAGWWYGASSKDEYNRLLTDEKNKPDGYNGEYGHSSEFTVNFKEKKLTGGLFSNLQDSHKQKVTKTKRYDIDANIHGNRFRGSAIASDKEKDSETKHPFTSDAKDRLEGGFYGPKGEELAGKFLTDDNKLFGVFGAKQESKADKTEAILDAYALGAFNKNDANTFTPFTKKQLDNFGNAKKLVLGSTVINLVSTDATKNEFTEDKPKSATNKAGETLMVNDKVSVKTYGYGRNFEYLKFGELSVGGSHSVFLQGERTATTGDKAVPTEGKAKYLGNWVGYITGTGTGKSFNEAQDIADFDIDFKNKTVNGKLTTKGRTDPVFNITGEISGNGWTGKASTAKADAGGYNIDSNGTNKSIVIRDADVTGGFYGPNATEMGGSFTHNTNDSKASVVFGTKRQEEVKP", "experiment": "cell-based or functional assay"}
{"binder": "His-tagged E. coli Skp, purified (natural protein, UniProt P0AEU7 21-161, looked up) ADKIAIVNMGSLFQQVAQKTGVSNTLENEFKGRASELQRMETDLQAKMKKLQSMKAGSDRTKLEKDVMAQRQTFAQKAQAFEQDRARRSNEERGKLVTRIQTAVKSVANSQDIDLVVDANAVAYNSSDVKDITADVLKQVK", "values": [{"measurement": "protection of urea-unfolded purified TbpB from proteinase K with empty liposomes, Skp added against SurA added", "value": 2, "unit": "fold"}]}
